Assay results from US20220348667A1 (LUXEMBOURG INSTITUTE OF HEALTH LIH, published 2022).

T1: human ACKR2 stably expressed on HEK293T cells (HEK.ACKR2) (human, UniProt O00590 1-384)
T1 construct: whole, on cells; also called hACKR2; HEK.hACKR2
T1 sequence (looked up): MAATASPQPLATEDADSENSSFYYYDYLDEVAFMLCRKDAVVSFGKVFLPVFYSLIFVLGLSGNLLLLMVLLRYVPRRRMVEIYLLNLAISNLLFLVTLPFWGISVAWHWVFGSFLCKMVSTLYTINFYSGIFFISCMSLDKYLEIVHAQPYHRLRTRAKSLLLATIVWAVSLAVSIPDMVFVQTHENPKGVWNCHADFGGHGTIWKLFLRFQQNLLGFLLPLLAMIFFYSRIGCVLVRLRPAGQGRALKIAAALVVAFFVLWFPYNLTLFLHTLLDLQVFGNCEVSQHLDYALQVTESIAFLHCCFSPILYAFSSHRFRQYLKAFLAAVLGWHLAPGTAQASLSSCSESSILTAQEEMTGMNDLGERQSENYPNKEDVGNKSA

B1: CCL5 (unlabelled, PeproTech) (ligand, human, UniProt P13501 24-91, looked up)
chain: SPYSSDTTPCCFAYIARPLPRAHIKEYFYTSGKCSNPAVVFVTRKNRQVCANPEKKWVREYINSLEMS

Tests used:
[1] = target: murine ACKR2 stably overexpressed on HEK293T cells (HEK.mACKR2) (mouse) (UniProt O08707); test: flow cytometry binding competition on HEK.mACKR2 cells, CCL5-AF647 (30 nM) as competitor
[2] = target: T1, human ACKR2 stably expressed on HEK293T …; test: flow cytometry, displacement of CXCL10-Cy5 from HEK.ACKR2 cells by unlabelled chemokine (50 nM)
Method: HEK293T and HEK-ACKR2 cells were incubated with CXCL10-Cy5 at indicated concentrations for 45 minutes at 37° C., then washed twice with FACS buffer (PBS, 1% BSA, 0.1% NaN₃). Dead cells were excluded using Zombie Green viability dye (BioLegend). ACKR2-negative HEK293T cells were used to evaluate non-specific binding of CXCL10-Cy5. For binding competition with unlabelled chemokines (50 nM), the signal obtained for CXCL10-Cy5 in the absence of unlabelled chemokines was used to define 100% binding. Ligand binding was quantified by mean fluorescence intensity on a BD FACS Fortessa cytometer (BD Biosciences).

Sequence of murine ACKR2 stably overexpressed on HEK293T cells (HEK.mACKR2) (mouse) (O08707 whole entry): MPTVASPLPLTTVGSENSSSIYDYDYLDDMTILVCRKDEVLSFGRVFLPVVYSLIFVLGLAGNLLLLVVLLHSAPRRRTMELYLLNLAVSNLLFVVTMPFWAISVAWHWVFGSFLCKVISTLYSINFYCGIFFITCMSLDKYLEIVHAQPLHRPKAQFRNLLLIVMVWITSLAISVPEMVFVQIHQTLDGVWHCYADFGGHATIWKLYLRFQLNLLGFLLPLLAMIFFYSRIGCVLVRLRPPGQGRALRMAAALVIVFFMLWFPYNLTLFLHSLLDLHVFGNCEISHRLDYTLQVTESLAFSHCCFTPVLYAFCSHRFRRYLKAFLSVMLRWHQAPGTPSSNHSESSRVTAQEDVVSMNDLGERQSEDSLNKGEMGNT

Molecule | % displacement of CCL5-AF647 at 50 µg/ml antibody [1] | binding result [2]
polyclonal Goat anti-mACKR2 (ab1656, Abcam) (antibody) | > 80% | –
B1 | – | binds
